Data published in the supplement of paper PMC9112550, “Optimization of the antimicrobial peptide Bac7 by deep mutational scanning” (BMC Biology, 2022).

Test system: Escherichia coli TOP10
Assay: shrunken log2 fold change of peptide-encoding DNA abundance (4.5 h post-induction vs induction); higher = less antimicrobial activity (less host growth inhibition)
Settings: time post-induction: 4.5 h; library: site-saturation at positions 5, 18, 19, 20
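Also: peptides expressed intracellularly from a pBAD plasmid library in pooled LB shake-flask culture, induced with 0.3% L-arabinose, DNA abundance read by NGS, three biological replicates, DESeq2 with apeglm shrinkage.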

| Sequence | shrunken log2 fold change |
| --- | --- |
| RRIRERPPRLPRPRPRPFSIPRP | 0.00587 |
| RRIRERPPRLPRPRPRPFSLPRP | -0.2 |
| RRIRERPPRLPRPRPRPFTFPRP | -0.275 |
| RRIRERPPRLPRPRPRPFTNPRP | -0.457 |
| RRIRERPPRLPRPRPRPFVAPRP | 0.0108 |
| RRIRERPPRLPRPRPRPGCDPRP | 0.0125 |
| RRIRERPPRLPRPRPRPGCFPRP | 0.199 |
| RRIRERPPRLPRPRPRPGCRPRP | 0.0043 |
| RRIRERPPRLPRPRPRPGEMPRP | -0.0373 |
| RRIRERPPRLPRPRPRPGEWPRP | 0.0118 |
| RRIRERPPRLPRPRPRPGGIPRP | 0.0836 |
| RRIRERPPRLPRPRPRPGHAPRP | 0.304 |
| RRIRERPPRLPRPRPRPGHCPRP | 0.0591 |
| RRIRERPPRLPRPRPRPGHEPRP | 0.159 |
| RRIRERPPRLPRPRPRPGHRPRP | -0.117 |
| RRIRERPPRLPRPRPRPGHWPRP | 0.0159 |
| RRIRERPPRLPRPRPRPGKFPRP | -0.0178 |
| RRIRERPPRLPRPRPRPGKRPRP | 0.093 |
| RRIRERPPRLPRPRPRPGNGPRP | -0.0693 |
| RRIRERPPRLPRPRPRPGNRPRP | -0.0677 |
| RRIRERPPRLPRPRPRPGPCPRP | 0.183 |
| RRIRERPPRLPRPRPRPGRSPRP | -0.032 |
| RRIRERPPRLPRPRPRPGSFPRP | 0.0492 |
| RRIRERPPRLPRPRPRPGSWPRP | 2.45 |
| RRIRERPPRLPRPRPRPGTDPRP | 8.37e-05 |

| Sequence | shrunken log2 fold change |
| --- | --- |
| RRIRERPPRLPRPRPRPGTEPRP | -0.049 |
| RRIRERPPRLPRPRPRPGVMPRP | 0.0523 |
| RRIRERPPRLPRPRPRPGVTPRP | 0.00546 |
| RRIRERPPRLPRPRPRPGWFPRP | -0.249 |
| RRIRERPPRLPRPRPRPGWRPRP | 0.0971 |
| RRIRERPPRLPRPRPRPGWYPRP | -0.0987 |
| RRIRERPPRLPRPRPRPHAVPRP | -0.34 |
| RRIRERPPRLPRPRPRPHCCPRP | -0.0271 |
| RRIRERPPRLPRPRPRPHCVPRP | 0.038 |
| RRIRERPPRLPRPRPRPHDDPRP | -0.147 |
| RRIRERPPRLPRPRPRPHDFPRP | -0.0616 |
| RRIRERPPRLPRPRPRPHDRPRP | -0.00992 |
| RRIRERPPRLPRPRPRPHDTPRP | -0.332 |
| RRIRERPPRLPRPRPRPHEMPRP | -0.039 |
| RRIRERPPRLPRPRPRPHEYPRP | -0.0163 |
| RRIRERPPRLPRPRPRPHFIPRP | -0.573 |
| RRIRERPPRLPRPRPRPHFPPRP | -0.151 |
| RRIRERPPRLPRPRPRPHGGPRP | -0.0234 |
| RRIRERPPRLPRPRPRPHGTPRP | 0.0284 |
| RRIRERPPRLPRPRPRPHHGPRP | -0.43 |
| RRIRERPPRLPRPRPRPHKAPRP | -0.0142 |
| RRIRERPPRLPRPRPRPHKLPRP | -0.635 |
| RRIRERPPRLPRPRPRPHKTPRP | 0.0137 |
| RRIRERPPRLPRPRPRPHLFPRP | -0.178 |
| RRIRERPPRLPRPRPRPHLYPRP | -0.858 |

| Sequence | shrunken log2 fold change |
| --- | --- |
| RRIRERPPRLPRPRPRPHRHPRP | -0.18 |
| RRIRERPPRLPRPRPRPHRYPRP | 0.0893 |
| RRIRERPPRLPRPRPRPHSAPRP | -0.179 |
| RRIRERPPRLPRPRPRPHTMPRP | -0.0656 |
| RRIRERPPRLPRPRPRPHTPPRP | 0.229 |
| RRIRERPPRLPRPRPRPHTVPRP | -0.346 |
| RRIRERPPRLPRPRPRPHTYPRP | -0.281 |
| RRIRERPPRLPRPRPRPHVLPRP | -0.202 |
| RRIRERPPRLPRPRPRPHVTPRP | -0.228 |
| RRIRERPPRLPRPRPRPHWDPRP | -0.00134 |
| RRIRERPPRLPRPRPRPHWVPRP | 0.172 |
| RRIRERPPRLPRPRPRPHYFPRP | -0.658 |
| RRIRERPPRLPRPRPRPIAKPRP | 0.0393 |
| RRIRERPPRLPRPRPRPIAVPRP | 0.0116 |
| RRIRERPPRLPRPRPRPICDPRP | -0.221 |
| RRIRERPPRLPRPRPRPICFPRP | -0.221 |
| RRIRERPPRLPRPRPRPICGPRP | 0.0966 |
| RRIRERPPRLPRPRPRPICNPRP | -1.25 |
| RRIRERPPRLPRPRPRPIEYPRP | -0.207 |
| RRIRERPPRLPRPRPRPIFHPRP | -0.395 |
| RRIRERPPRLPRPRPRPIHAPRP | 0.0259 |
| RRIRERPPRLPRPRPRPIIFPRP | -0.352 |
| RRIRERPPRLPRPRPRPIINPRP | -0.702 |
| RRIRERPPRLPRPRPRPINAPRP | -0.129 |
| RRIRERPPRLPRPRPRPINQPRP | -0.734 |
